Measurements from US20140213513A1 (Sanofi, priority 2012, published 2014).
*1 amine or outer side, *2 acyl side, *3 side chain or, on linkers, in order; H or OH if unused. Where no end group is shown, it is not given here. Side-chain parts run from the residue outwards. [ ]: non-standard residue; d: D form. The star is where a group is joined. γGlu = O=C(O)[C@H](CCC(=O)[*:2])N[*:1]; Stearoyl = CCCCCCCCCCCCCCCCCC(=O)*; Palmitoyl = CCCCCCCCCCCCCCCC(=O)*; Aib = CC(C)(N)C(=O)O

T1: human GIP receptor (human, UniProt P48546 22-466)
T1 sequence (looked up): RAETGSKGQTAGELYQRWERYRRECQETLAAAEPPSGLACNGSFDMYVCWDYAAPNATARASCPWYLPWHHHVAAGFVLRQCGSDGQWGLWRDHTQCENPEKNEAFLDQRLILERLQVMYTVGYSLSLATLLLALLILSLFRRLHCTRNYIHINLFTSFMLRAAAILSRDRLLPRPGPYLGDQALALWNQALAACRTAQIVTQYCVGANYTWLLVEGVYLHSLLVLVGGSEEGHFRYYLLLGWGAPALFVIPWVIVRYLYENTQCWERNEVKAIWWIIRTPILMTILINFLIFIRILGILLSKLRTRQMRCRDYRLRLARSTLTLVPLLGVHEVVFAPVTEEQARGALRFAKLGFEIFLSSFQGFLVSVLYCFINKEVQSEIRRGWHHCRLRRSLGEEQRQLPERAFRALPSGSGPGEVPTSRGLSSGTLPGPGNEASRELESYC

B1: exendin-4 peptide analogue SEQ ID NO: 21 (peptide)
peptide: Y[Aib]QGTFTSDLSIQK(Palmitoyl)EQRAA[Aib]EFIEWLKNTGPSSGAPPPS-NH2
modifications: N-terminus assumed
SMILES: CCCCCCCCCCCCCCCC(=O)NCCCC[C@H](NC(=O)[C@H](CCC(N)=O)NC(=O)[C@@H](NC(=O)[C@H](CO)NC(=O)[C@H](CC(C)C)NC(=O)[C@H](CC(=O)O)NC(=O)[C@H](CO)NC(=O)[C@@H](NC(=O)[C@H](Cc1ccccc1)NC(=O)[C@@H](NC(=O)CNC(=O)[C@H](CCC(N)=O)NC(=O)C(C)(C)NC(=O)[C@@H](N)Cc1ccc(O)cc1)[C@@H](C)O)[C@@H](C)O)[C@@H](C)CC)C(=O)N[C@@H](CCC(=O)O)C(=O)N[C@@H](CCC(N)=O)C(=O)N[C@@H](CCCNC(=N)N)C(=O)N[C@@H](C)C(=O)N[C@@H](C)C(=O)NC(C)(C)C(=O)N[C@@H](CCC(=O)O)C(=O)N[C@@H](Cc1ccccc1)C(=O)N[C@H](C(=O)N[C@@H](CCC(=O)O)C(=O)N[C@@H](Cc1c[nH]c2ccccc12)C(=O)N[C@@H](CC(C)C)C(=O)N[C@@H](CCCCN)C(=O)N[C@@H](CC(N)=O)C(=O)N[C@H](C(=O)NCC(=O)N1CCC[C@H]1C(=O)N[C@@H](CO)C(=O)N[C@@H](CO)C(=O)NCC(=O)N[C@@H](C)C(=O)N1CCC[C@H]1C(=O)N1CCC[C@H]1C(=O)N1CCC[C@H]1C(=O)N[C@@H](CO)C(N)=O)[C@@H](C)O)[C@@H](C)CC
B2: exendin-4 peptide analogue SEQ ID NO: 19 (peptide)
peptide: Y[Aib]QGTFTSDLSIQK([γGlu-Palmitoyl])EKRLA[Aib]EFIEWLKNTGPSSGAPPPS-NH2
modifications: N-terminus assumed
SMILES: CCCCCCCCCCCCCCCC(=O)N[C@@H](CCC(=O)NCCCC[C@H](NC(=O)[C@H](CCC(N)=O)NC(=O)[C@@H](NC(=O)[C@H](CO)NC(=O)[C@H](CC(C)C)NC(=O)[C@H](CC(=O)O)NC(=O)[C@H](CO)NC(=O)[C@@H](NC(=O)[C@H](Cc1ccccc1)NC(=O)[C@@H](NC(=O)CNC(=O)[C@H](CCC(N)=O)NC(=O)C(C)(C)NC(=O)[C@@H](N)Cc1ccc(O)cc1)[C@@H](C)O)[C@@H](C)O)[C@@H](C)CC)C(=O)N[C@@H](CCC(=O)O)C(=O)N[C@@H](CCCCN)C(=O)N[C@@H](CCCNC(=N)N)C(=O)N[C@@H](CC(C)C)C(=O)N[C@@H](C)C(=O)NC(C)(C)C(=O)N[C@@H](CCC(=O)O)C(=O)N[C@@H](Cc1ccccc1)C(=O)N[C@H](C(=O)N[C@@H](CCC(=O)O)C(=O)N[C@@H](Cc1c[nH]c2ccccc12)C(=O)N[C@@H](CC(C)C)C(=O)N[C@@H](CCCCN)C(=O)N[C@@H](CC(N)=O)C(=O)N[C@H](C(=O)NCC(=O)N1CCC[C@H]1C(=O)N[C@@H](CO)C(=O)N[C@@H](CO)C(=O)NCC(=O)N[C@@H](C)C(=O)N1CCC[C@H]1C(=O)N1CCC[C@H]1C(=O)N1CCC[C@H]1C(=O)N[C@@H](CO)C(N)=O)[C@@H](C)O)[C@@H](C)CC)C(=O)O
B3: exendin-4 peptide analogue SEQ ID NO: 20 (peptide)
peptide: Y[Aib]EGTFTSDLSIQK([γGlu-Palmitoyl])EKRAA[Aib]EFIEWLKRAGPSSGAPPPS-NH2
modifications: N-terminus assumed
SMILES: CCCCCCCCCCCCCCCC(=O)N[C@@H](CCC(=O)NCCCC[C@H](NC(=O)[C@H](CCC(N)=O)NC(=O)[C@@H](NC(=O)[C@H](CO)NC(=O)[C@H](CC(C)C)NC(=O)[C@H](CC(=O)O)NC(=O)[C@H](CO)NC(=O)[C@@H](NC(=O)[C@H](Cc1ccccc1)NC(=O)[C@@H](NC(=O)CNC(=O)[C@H](CCC(=O)O)NC(=O)C(C)(C)NC(=O)[C@@H](N)Cc1ccc(O)cc1)[C@@H](C)O)[C@@H](C)O)[C@@H](C)CC)C(=O)N[C@@H](CCC(=O)O)C(=O)N[C@@H](CCCCN)C(=O)N[C@@H](CCCNC(=N)N)C(=O)N[C@@H](C)C(=O)N[C@@H](C)C(=O)NC(C)(C)C(=O)N[C@@H](CCC(=O)O)C(=O)N[C@@H](Cc1ccccc1)C(=O)N[C@H](C(=O)N[C@@H](CCC(=O)O)C(=O)N[C@@H](Cc1c[nH]c2ccccc12)C(=O)N[C@@H](CC(C)C)C(=O)N[C@@H](CCCCN)C(=O)N[C@@H](CCCNC(=N)N)C(=O)N[C@@H](C)C(=O)NCC(=O)N1CCC[C@H]1C(=O)N[C@@H](CO)C(=O)N[C@@H](CO)C(=O)NCC(=O)N[C@@H](C)C(=O)N1CCC[C@H]1C(=O)N1CCC[C@H]1C(=O)N1CCC[C@H]1C(=O)N[C@@H](CO)C(N)=O)[C@@H](C)CC)C(=O)O
B4: exendin-4 peptide analogue SEQ ID NO: 17 (peptide)
peptide: Y[Aib]EGTFTSDLSKQK([γGlu-Palmitoyl])EKEAA[Aib]EFIEWLKAGGPSSGAPPPS-NH2
modifications: N-terminus assumed
SMILES: CCCCCCCCCCCCCCCC(=O)N[C@@H](CCC(=O)NCCCC[C@H](NC(=O)[C@H](CCC(N)=O)NC(=O)[C@H](CCCCN)NC(=O)[C@H](CO)NC(=O)[C@H](CC(C)C)NC(=O)[C@H](CC(=O)O)NC(=O)[C@H](CO)NC(=O)[C@@H](NC(=O)[C@H](Cc1ccccc1)NC(=O)[C@@H](NC(=O)CNC(=O)[C@H](CCC(=O)O)NC(=O)C(C)(C)NC(=O)[C@@H](N)Cc1ccc(O)cc1)[C@@H](C)O)[C@@H](C)O)C(=O)N[C@@H](CCC(=O)O)C(=O)N[C@@H](CCCCN)C(=O)N[C@@H](CCC(=O)O)C(=O)N[C@@H](C)C(=O)N[C@@H](C)C(=O)NC(C)(C)C(=O)N[C@@H](CCC(=O)O)C(=O)N[C@@H](Cc1ccccc1)C(=O)N[C@H](C(=O)N[C@@H](CCC(=O)O)C(=O)N[C@@H](Cc1c[nH]c2ccccc12)C(=O)N[C@@H](CC(C)C)C(=O)N[C@@H](CCCCN)C(=O)N[C@@H](C)C(=O)NCC(=O)NCC(=O)N1CCC[C@H]1C(=O)N[C@@H](CO)C(=O)N[C@@H](CO)C(=O)NCC(=O)N[C@@H](C)C(=O)N1CCC[C@H]1C(=O)N1CCC[C@H]1C(=O)N1CCC[C@H]1C(=O)N[C@@H](CO)C(N)=O)[C@@H](C)CC)C(=O)O
B5: exendin-4 peptide analogue SEQ ID NO: 22 (peptide)
peptide: Y[Aib]QGTFTSDLSIQK([γGlu-Palmitoyl])EKRA[Aib][Aib]EFIEWLKNTGPSSGAPPPS-NH2
modifications: N-terminus assumed
SMILES: CCCCCCCCCCCCCCCC(=O)N[C@@H](CCC(=O)NCCCC[C@H](NC(=O)[C@H](CCC(N)=O)NC(=O)[C@@H](NC(=O)[C@H](CO)NC(=O)[C@H](CC(C)C)NC(=O)[C@H](CC(=O)O)NC(=O)[C@H](CO)NC(=O)[C@@H](NC(=O)[C@H](Cc1ccccc1)NC(=O)[C@@H](NC(=O)CNC(=O)[C@H](CCC(N)=O)NC(=O)C(C)(C)NC(=O)[C@@H](N)Cc1ccc(O)cc1)[C@@H](C)O)[C@@H](C)O)[C@@H](C)CC)C(=O)N[C@@H](CCC(=O)O)C(=O)N[C@@H](CCCCN)C(=O)N[C@@H](CCCNC(=N)N)C(=O)N[C@@H](C)C(=O)NC(C)(C)C(=O)NC(C)(C)C(=O)N[C@@H](CCC(=O)O)C(=O)N[C@@H](Cc1ccccc1)C(=O)N[C@H](C(=O)N[C@@H](CCC(=O)O)C(=O)N[C@@H](Cc1c[nH]c2ccccc12)C(=O)N[C@@H](CC(C)C)C(=O)N[C@@H](CCCCN)C(=O)N[C@@H](CC(N)=O)C(=O)N[C@H](C(=O)NCC(=O)N1CCC[C@H]1C(=O)N[C@@H](CO)C(=O)N[C@@H](CO)C(=O)NCC(=O)N[C@@H](C)C(=O)N1CCC[C@H]1C(=O)N1CCC[C@H]1C(=O)N1CCC[C@H]1C(=O)N[C@@H](CO)C(N)=O)[C@@H](C)O)[C@@H](C)CC)C(=O)O
B6: exendin-4 peptide analogue SEQ ID NO: 18 (peptide)
peptide: Y[Aib]HGTFTSDLSIQK([γGlu-Stearoyl])EKRAA[Aib]EFIEWLKNTGPSSGAPPPS-NH2
modifications: N-terminus assumed
SMILES: CCCCCCCCCCCCCCCCCC(=O)N[C@@H](CCC(=O)NCCCC[C@H](NC(=O)[C@H](CCC(N)=O)NC(=O)[C@@H](NC(=O)[C@H](CO)NC(=O)[C@H](CC(C)C)NC(=O)[C@H](CC(=O)O)NC(=O)[C@H](CO)NC(=O)[C@@H](NC(=O)[C@H](Cc1ccccc1)NC(=O)[C@@H](NC(=O)CNC(=O)[C@H](Cc1c[nH]cn1)NC(=O)C(C)(C)NC(=O)[C@@H](N)Cc1ccc(O)cc1)[C@@H](C)O)[C@@H](C)O)[C@@H](C)CC)C(=O)N[C@@H](CCC(=O)O)C(=O)N[C@@H](CCCCN)C(=O)N[C@@H](CCCNC(=N)N)C(=O)N[C@@H](C)C(=O)N[C@@H](C)C(=O)NC(C)(C)C(=O)N[C@@H](CCC(=O)O)C(=O)N[C@@H](Cc1ccccc1)C(=O)N[C@H](C(=O)N[C@@H](CCC(=O)O)C(=O)N[C@@H](Cc1c[nH]c2ccccc12)C(=O)N[C@@H](CC(C)C)C(=O)N[C@@H](CCCCN)C(=O)N[C@@H](CC(N)=O)C(=O)N[C@H](C(=O)NCC(=O)N1CCC[C@H]1C(=O)N[C@@H](CO)C(=O)N[C@@H](CO)C(=O)NCC(=O)N[C@@H](C)C(=O)N1CCC[C@H]1C(=O)N1CCC[C@H]1C(=O)N1CCC[C@H]1C(=O)N[C@@H](CO)C(N)=O)[C@@H](C)O)[C@@H](C)CC)C(=O)O

Biological target: human glucagon receptor (human, UniProt P47871 26-477)
Sequence (P47871 26-477): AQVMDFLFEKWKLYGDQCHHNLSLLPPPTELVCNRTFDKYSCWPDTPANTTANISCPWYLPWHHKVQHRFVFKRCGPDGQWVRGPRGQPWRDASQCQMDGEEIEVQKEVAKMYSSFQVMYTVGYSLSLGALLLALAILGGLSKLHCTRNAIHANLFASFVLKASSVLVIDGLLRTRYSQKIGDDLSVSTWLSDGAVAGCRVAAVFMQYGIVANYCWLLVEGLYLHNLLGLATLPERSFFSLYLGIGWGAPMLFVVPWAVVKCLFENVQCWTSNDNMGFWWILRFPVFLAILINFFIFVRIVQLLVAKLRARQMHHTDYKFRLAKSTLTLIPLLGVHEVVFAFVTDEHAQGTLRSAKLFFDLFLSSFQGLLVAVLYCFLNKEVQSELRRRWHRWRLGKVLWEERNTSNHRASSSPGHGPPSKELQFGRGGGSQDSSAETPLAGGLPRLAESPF
Test: cell-based or functional assay

Binder | EC50 hGLUC R
B1 | 0.674 nM
B2 | 0.137 nM
B3 | 18.2 nM
B4 | 21 nM
B5 | 2.21 nM
B6 | 0.0095 nM

Biological target: human GLP-1 receptor (human, UniProt P43220 24-463)
Test: cell-based or functional assay

Binder | EC50 hGLP-1 R
B1 | 0.037 nM
B2 | 0.0085 nM
B3 | 0.0082 nM
B4 | 0.0052 nM
B5 | 0.0085 nM
B6 | 0.0183 nM

Biological target: T1, human GIP receptor
Test: cell-based or functional assay

Binder | EC50 hGIP R
B1 | 0.189 nM
B2 | 0.0915 nM
B3 | 0.0163 nM
B4 | 0.0083 nM
B5 | 0.102 nM
B6 | 0.0095 nM
